Patent publication US6919086B1, “Graminae pollen allergen mutants for specific immunotherapy, and production and use of the same” (Merck Patent Gesellschaft mit, priority 1997, dated 2005)

Tests used:
[1] = biological target: specific IgE on basophils from the blood of allergic patient; assay: cell-based or functional assay
[2] = biological target: IgE antibodies of the individual allergic patient serum II/17; assay: EAST inhibition, individual serum II/17
[3] = biological target: IgE antibodies of the allergic patient serum pool We 6/97; assay: EAST inhibition, serum pool We 6/97
[4] = biological target: IgE antibodies of the allergic patient serum pool Bor 18/100 (20 donors); assay: EAST inhibition, serum pool Bor 18/100
[5] = biological target: IgE antibodies of the individual allergic patient serum II/3; assay: EAST inhibition, individual serum II/3
[6] = biological target: IgE antibodies of the individual allergic patient serum II/12; assay: EAST inhibition, individual serum II/12

Row | concentration required to bring about a 30% histamine release from basophils, against wild type rPh1 p 5b [1] [fold higher] | allergenic potency (Prel) at 25% inhibition (relative to native Phl p 5b) [2] | IC50 [3] [nM] | allergenic potency (Prel) at 25% inhibition (relative to native Phl p 5b) [3] | allergenic potency (Prel) at 50% inhibition (relative to native Phl p 5b) [3] | inhibition value (inhibitor concentration at 25% inhibition) [3] [mol/L] | IC50 [4] [nM] | allergenic potency (Prel) at 25% inhibition (relative to native Phl p 5b) [4] | allergenic potency (Prel) at 50% inhibition (relative to native Phl p 5b) [4] | inhibition value (inhibitor concentration at 25% inhibition) [4] [mol/L] | IC50 [5] [nM] | allergenic potency (Prel) at 25% inhibition (relative to native Phl p 5b) [5] | allergenic potency (Prel) at 50% inhibition (relative to native Phl p 5b) [5] | inhibition value (inhibitor concentration at 25% inhibition) [5] [mol/L] | allergenic potency (Prel) at 25% inhibition (relative to native Phl p 5b) [6] | allergenic potency (Prel) at 50% inhibition (relative to native Phl p 5b) [6] | inhibition value (inhibitor concentration at 25% inhibition) [6] [mol/L] | IC50 [2] [nM] | allergenic potency (Prel) at 50% inhibition (relative to native Phl p 5b) [2] | inhibition value (inhibitor concentration at 25% inhibition) [2] [mol/L] | Binder | further results
1 | 500 | 2.9e-12 |  |  |  |  |  |  |  |  |  |  |  |  |  |  |  |  |  |  | rPhl p 5b deletion mutant DM2 (deletion F51-G178, D49L, K50A) (protein) ADAGYAPATPAAAGAAAGKATTEEQKLIEDINVGFKAAVAAAASVPAALAGAYDTYKCIPSLEAAVKQAYAATVAAAPQVKYAVFEAALTKAITAMSEVQKVSQPATGAATVAAGAATTAAGAASGAATVAAGGYKV | 
2 |  | 1.04 | 1400 | 1.7 | 0.44 | 3e-10 | 5 | 1.71 | 0.841 | 2e-10 | 14 | 0.903 | 0.419 | 5.6e-10 | 0.597 | 0.093 | 8.7e-10 | 4.7 | 0.545 | 2.1e-10 | recombinant Phl p 5b (wild type) (protein) ADAGYAPATPAAAGAAAGKATTEEQKLIEDINVGFKAAVAAAASVPAADKFKTFEAAFTSSSKAAAAKAPGLVPKLDAAYSVAYKAAVGATPEAKFDSFVASLTEALRVIAGALEVHAVKPVTEEPGMAKIPAGELQIIDKIDAAFKVAATAAATAPADDKFTVFEAAFNKAIKESTGGAYDTYKCIPSLEAAVKQAYAATVAAAPQVKYAVFEAALTKAITAMSEVQKVSQPATGAATVAAGAATTAAGAASGAATVAAGGYKV | IC50 [6]: 73 nM
3 | 20 | 0.033 | 17000 | 0.022 | 0.0004 | 2.3e-08 | 28 | 0.039 | 0.0015 | 8.6e-09 | 17 | 0.042 | 0.0035 | 1.2e-08 | 3.4e-05 | 1e-10 | 1.5e-05 | 2 | 0.001 | 6.5e-09 | rPhl p 5b deletion mutant DM1 (deletion K50-P132, D49L) (protein) ADAGYAPATPAAAGAAAGKATTEEQKLIEDINVGFKAAVAAAASVPAALAGELQIIDKIDAAFKVAATAAATAPADDKFTVFEAAFNKAIKESTGGAYDTYKCIPSLEAAVKQAYAATVAAAPQVKYAVFEAALTKAITAMSEVQKVSQPATGAATVAAGAATTAAGAASGAATVAAGGYKV | 
